Reference: the supplement of paper PMC10567573

B1: BRF1 (parent)
chain: FVESSGGGSSAVGQFVSLDGAGKT

Variants of: B1
Assay: protein stability index of a GFP-peptide fusion (GPS, HEK-293T) (PSI 1-6); higher = more stable
Settings: c terminus: a fixed tail appended
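Note: lentivirally expressed fusions sorted by FACS into six bins by GFP to DsRed ratio, PSI derived from sequencing read proportions per bin multiplied by bin number.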

Variant	protein stability index
FVESSGGGSSAVVQFVSLDGAGKT [G13V]	2.25
FVESSGGGSSAVTQFVSLDGAGKT [G13T]	2.3
FVESSGGGSSAVKQFVSLDGAGKT [G13K]	2.06
FVESSGGGSSAVLQFVSLDGAGKT [G13L]	2.05
FVESSGGGSSAVSQFVSLDGAGKT [G13S]	2.05
FVESSGGGSSAVMQFVSLDGAGKT [G13M]	1.66
FVESSGGGSSAVQQFVSLDGAGKT [G13Q]	1.93
FVESSGGGSSAVEQFVSLDGAGKT [G13E]	2.96
FVESSGGGSSAVNQFVSLDGAGKT [G13N]	1.81
FVESSGGGSSAVRQFVSLDGAGKT [G13R]	2.41
FVESSGGGSSAVPQFVSLDGAGKT [G13P]	2.18
FVESSGGGSSAVFQFVSLDGAGKT [G13F]	4.42
FVESSGGGSSAVIQFVSLDGAGKT [G13I]	1.02
FVESSGGGSSAVWQFVSLDGAGKT [G13W]	1.49
FVESSGGGSSAVDQFVSLDGAGKT [G13D]	3.3
FVESSGGGSSAVHQFVSLDGAGKT [G13H]	1.84
FVESSGGGSSAVCQFVSLDGAGKT [G13C]	1.92
FVESSGGGSSAVGQNVSLDGAGKT [F15N]	2.83
FVESSGGGSSAVGQPVSLDGAGKT [F15P]	3.14
FVESSGGGSSAVGQHVSLDGAGKT [F15H]	3.01
FVESSGGGSSAVGQEVSLDGAGKT [F15E]	3.35
FVESSGGGSSAVGQWVSLDGAGKT [F15W]	2.06
FVESSGGGSSAVGQMVSLDGAGKT [F15M]	2.22
FVESSGGGSSAVGQVVSLDGAGKT [F15V]	2.12

Variant	protein stability index
FVESSGGGSSAVGQYVSLDGAGKT [F15Y]	2.59
FVESSGGGSSAVGQSVSLDGAGKT [F15S]	2.73
FVESSGGGSSAVGQIVSLDGAGKT [F15I]	2.55
FVESSGGGSSAVGQAVSLDGAGKT [F15A]	2.31
FVESSGGGSSAVGQQVSLDGAGKT [F15Q]	2.56
FVESSGGGSSAVGQRVSLDGAGKT [F15R]	2.69
FVESSGGGSSAVGQTVSLDGAGKT [F15T]	2.96
FVESSGGGSSAVGQKVSLDGAGKT [F15K]	3.1
FVESSGGGSSAVGQGVSLDGAGKT [F15G]	2.68
FVESSGGGSSAVGQLVSLDGAGKT [F15L]	2.27
FVESSGGGSSAVGQDVSLDGAGKT [F15D]	4.4
FVESSGGGSSALGQFVSLDGAGKT [V12L]	1.95
FVESSGGGSSAIGQFVSLDGAGKT [V12I]	2.09
FVESSGGGSSANGQFVSLDGAGKT [V12N]	3.08
FVESSGGGSSAKGQFVSLDGAGKT [V12K]	2.88
FVESSGGGSSAPGQFVSLDGAGKT [V12P]	1.86
FVESSGGGSSADGQFVSLDGAGKT [V12D]	3.13
FVESSGGGSSAAGQFVSLDGAGKT [V12A]	2.2
FVESSGGGSSAHGQFVSLDGAGKT [V12H]	2.25
FVESSGGGSSAYGQFVSLDGAGKT [V12Y]	1.29
FVESSGGGSSAWGQFVSLDGAGKT [V12W]	3.19
FVESSGGGSSATGQFVSLDGAGKT [V12T]	1.86
FVESSGGGSSACGQFVSLDGAGKT [V12C]	2.37
FVESSGGGSSARGQFVSLDGAGKT [V12R]	2.51

Variant	protein stability index
FVESSGGGSSASGQFVSLDGAGKT [V12S]	2.43
FVESSGGGSSAFGQFVSLDGAGKT [V12F]	2.01
FVESSGGGSSAEGQFVSLDGAGKT [V12E]	2.87
FVESSGGGSSAGGQFVSLDGAGKT [V12G]	2.37
FVESSGGGSSAMGQFVSLDGAGKT [V12M]	2.52
FVESSGGGSSAVGSFVSLDGAGKT [Q14S]	1.78
FVESSGGGSSAVGTFVSLDGAGKT [Q14T]	1.86
FVESSGGGSSAVGIFVSLDGAGKT [Q14I]	2.53
FVESSGGGSSAVGCFVSLDGAGKT [Q14C]	1.96
FVESSGGGSSAVGKFVSLDGAGKT [Q14K]	1.72
FVESSGGGSSAVGDFVSLDGAGKT [Q14D]	2.73
FVESSGGGSSAVGLFVSLDGAGKT [Q14L]	1.04
FVESSGGGSSAVGMFVSLDGAGKT [Q14M]	3.29
FVESSGGGSSAVGHFVSLDGAGKT [Q14H]	1.68
FVESSGGGSSAVGNFVSLDGAGKT [Q14N]	1.9
FVESSGGGSSAVGGFVSLDGAGKT [Q14G]	2.06
FVESSGGGSSAVGRFVSLDGAGKT [Q14R]	1.39
FVESSGGGSSAVGAFVSLDGAGKT [Q14A]	1.73
FVESSGGGSSAVGEFVSLDGAGKT [Q14E]	2.89
FVESSGGGSSAVGYFVSLDGAGKT [Q14Y]	1.75
FVESSGGGSSAVGPFVSLDGAGKT [Q14P]	3.44
FVESSGGGSSAVGQFVSADGAGKT [L18A]	2.5
FVESSGGGSSAVGQFVSFDGAGKT [L18F]	1.83
FVESSGGGSSAVGQFVSTDGAGKT [L18T]	2.04

Variant	protein stability index
FVESSGGGSSAVGQFVSQDGAGKT [L18Q]	2.88
FVESSGGGSSAVGQFVSRDGAGKT [L18R]	2
FVESSGGGSSAVGQFVSDDGAGKT [L18D]	2.58
FVESSGGGSSAVGQFVSGDGAGKT [L18G]	2.15
FVESSGGGSSAVGQFVSIDGAGKT [L18I]	2.69
FVESSGGGSSAVGQFVSSDGAGKT [L18S]	2.66
FVESSGGGSSAVGQFVSPDGAGKT [L18P]	2.12
FVESSGGGSSAVGQFVSHDGAGKT [L18H]	3.25
FVESSGGGSSAVGQFVSKDGAGKT [L18K]	2.3
FVESSGGGSSAVGQFVSVDGAGKT [L18V]	2.95
FVESSGGGSSAVGQFVSMDGAGKT [L18M]	2.55
FVESSGGGSSAVGQFVSCDGAGKT [L18C]	2.5
FVESSGGGSSAVGQFVSWDGAGKT [L18W]	1.58
FVESSGGGSSAVGQFVSEDGAGKT [L18E]	3.8
FVESSGGGSSAVGQFVSYDGAGKT [L18Y]	1.85
FVESSGGGSSAVGQFVSNDGAGKT [L18N]	3.25
FVESSGGGSSAVGQFVILDGAGKT [S17I]	1.23
FVESSGGGSSAVGQFVWLDGAGKT [S17W]	2.87
FVESSGGGSSAVGQFVLLDGAGKT [S17L]	2.33
FVESSGGGSSAVGQFVFLDGAGKT [S17F]	1.72
FVESSGGGSSAVGQFVHLDGAGKT [S17H]	2.54
FVESSGGGSSAVGQFVDLDGAGKT [S17D]	2.39
FVESSGGGSSAVGQFVALDGAGKT [S17A]	3.26
FVESSGGGSSAVGQFVVLDGAGKT [S17V]	1.99

Variant	protein stability index
FVESSGGGSSAVGQFVGLDGAGKT [S17G]	3.15
FVESSGGGSSAVGQFVNLDGAGKT [S17N]	2.19
FVESSGGGSSAVGQFVRLDGAGKT [S17R]	1.73
FVESSGGGSSAVGQFVTLDGAGKT [S17T]	2.29
FVESSGGGSSAVGQFVYLDGAGKT [S17Y]	2.45
FVESSGGGSSAVGQFVKLDGAGKT [S17K]	1.89
FVESSGGGSSAVGQFVMLDGAGKT [S17M]	1.57
FVESSGGGSSAVGQFVCLDGAGKT [S17C]	1.83
FVESSGGGSSAVGQFVPLDGAGKT [S17P]	1.81
FVESSGGGSSAVGQFVELDGAGKT [S17E]	2.53
FVESSGGGSSAVGQFVQLDGAGKT [S17Q]	2.81
FVESSGGGSSAVGQFVSLDVAGKT [G20V]	2.41
FVESSGGGSSAVGQFVSLDHAGKT [G20H]	2.55
FVESSGGGSSAVGQFVSLDMAGKT [G20M]	1.76
FVESSGGGSSAVGQFVSLDIAGKT [G20I]	2.16
FVESSGGGSSAVGQFVSLDSAGKT [G20S]	1.75
FVESSGGGSSAVGQFVSLDFAGKT [G20F]	2.6
FVESSGGGSSAVGQFVSLDRAGKT [G20R]	2.32
FVESSGGGSSAVGQFVSLDYAGKT [G20Y]	1.6
FVESSGGGSSAVGQFVSLDQAGKT [G20Q]	3.03
FVESSGGGSSAVGQFVSLDCAGKT [G20C]	2.41
FVESSGGGSSAVGQFVSLDEAGKT [G20E]	2.55
FVESSGGGSSAVGQFVSLDTAGKT [G20T]	2.21
FVESSGGGSSAVGQFVSLDPAGKT [G20P]	2.13

Variant	protein stability index
FVESSGGGSSAVGQFVSLDNAGKT [G20N]	2.32
FVESSGGGSSAVGQFVSLDDAGKT [G20D]	2.43
FVESSGGGSSAVGQFVSLDKAGKT [G20K]	1.72
FVESSGGGSSAVGQFVSLDWAGKT [G20W]	2.34
FVESSGGGSSAVGQFVSLDLAGKT [G20L]	2.58
FVESSGGGSSAVGQFVSLDAAGKT [G20A]	2.41
FVESSGGGSSYVGQFVSLDGAGKT [A11Y]	1.64
FVESSGGGSSMVGQFVSLDGAGKT [A11M]	1.63
FVESSGGGSSQVGQFVSLDGAGKT [A11Q]	2.61
FVESSGGGSSPVGQFVSLDGAGKT [A11P]	2.42
FVESSGGGSSLVGQFVSLDGAGKT [A11L]	1.77
FVESSGGGSSNVGQFVSLDGAGKT [A11N]	2
FVESSGGGSSRVGQFVSLDGAGKT [A11R]	1.39
FVESSGGGSSTVGQFVSLDGAGKT [A11T]	2.06
FVESSGGGSSKVGQFVSLDGAGKT [A11K]	1.41
FVESSGGGSSVVGQFVSLDGAGKT [A11V]	2.4
FVESSGGGSSIVGQFVSLDGAGKT [A11I]	2.41
FVESSGGGSSSVGQFVSLDGAGKT [A11S]	1.95
FVESSGGGSSAVGQFVSLFGAGKT [D19F]	1.48
FVESSGGGSSAVGQFVSLGGAGKT [D19G]	1.69
FVESSGGGSSAVGQFVSLQGAGKT [D19Q]	1.98
FVESSGGGSSAVGQFVSLPGAGKT [D19P]	2.26
FVESSGGGSSAVGQFVSLKGAGKT [D19K]	2.55
FVESSGGGSSAVGQFVSLWGAGKT [D19W]	3.02

Variant	protein stability index
FVESSGGGSSAVGQFVSLCGAGKT [D19C]	1.72
FVESSGGGSSAVGQFVSLSGAGKT [D19S]	1.59
FVESSGGGSSAVGQFVSLAGAGKT [D19A]	1.72
FVESSGGGSSAVGQFVSLTGAGKT [D19T]	1.59
FVESSGGGSSAVGQFVSLHGAGKT [D19H]	2.27
FVESSGGGSSAVGQFVSLNGAGKT [D19N]	2.02
FVESSGGGSSAVGQFVSLEGAGKT [D19E]	2.56
FVESSGGGSSAVGQFVSLVGAGKT [D19V]	1.12
FVESSGGGSSAVGQFVSLMGAGKT [D19M]	2.17
FVESSGGGSSAVGQFVSLDGRGKT [A21R]	2.66
FVESSGGGSSAVGQFVSLDGFGKT [A21F]	1.33
FVESSGGGSSAVGQFVSLDGNGKT [A21N]	2.56
FVESSGGGSSAVGQFVSLDGSGKT [A21S]	2.15
FVESSGGGSSAVGQFVSLDGHGKT [A21H]	2.13
FVESSGGGSSAVGQFVSLDGIGKT [A21I]	1.96
FVESSGGGSSAVGQFVSLDGPGKT [A21P]	1.95
FVESSGGGSSAVGQFVSLDGEGKT [A21E]	3.23
FVESSGGGSSAVGQFVSLDGKGKT [A21K]	2.43
FVESSGGGSSAVGQFVSLDGLGKT [A21L]	1.8
FVESSGGGSSAVGQFVSLDGMGKT [A21M]	2.32
FVESSGGGSSAVGQFVSLDGQGKT [A21Q]	2.03
FVESSGGGSSAVGQFVSLDGGGKT [A21G]	2.6
FVESSGGGSSAVGQFVSLDGDGKT [A21D]	3.36
FVESSGGGSSAVGQFVSLDGCGKT [A21C]	1.81

Variant	protein stability index
FVESSGGGSSAVGQFVSLDGTGKT [A21T]	2.54
FVESSGGGSSAVGQFHSLDGAGKT [V16H]	2.6
FVESSGGGSSAVGQFYSLDGAGKT [V16Y]	1.75
FVESSGGGSSAVGQFISLDGAGKT [V16I]	2.18
FVESSGGGSSAVGQFGSLDGAGKT [V16G]	2.4
FVESSGGGSSAVGQFRSLDGAGKT [V16R]	2.35
FVESSGGGSSAVGQFWSLDGAGKT [V16W]	4.22
FVESSGGGSSAVGQFMSLDGAGKT [V16M]	2.96
FVESSGGGSSAVGQFKSLDGAGKT [V16K]	2.16
FVESSGGGSSAVGQFFSLDGAGKT [V16F]	2.01
FVESSGGGSSAVGQFCSLDGAGKT [V16C]	3.51
FVESSGGGSSAVGQFASLDGAGKT [V16A]	2.65
FVESSGGGSSAVGQFDSLDGAGKT [V16D]	2.96
FVESSGGGSSAVGQFLSLDGAGKT [V16L]	2.36
FVESSGGGSSAVGQFSSLDGAGKT [V16S]	2.83
FVESSGGGSSAVGQFTSLDGAGKT [V16T]	2.38
FVESSGGGSSAVGQFQSLDGAGKT [V16Q]	2.97
FVESSGGGSSAVGQFPSLDGAGKT [V16P]	2.66
FVESSGGGSSAVGQFESLDGAGKT [V16E]	3.51
FVESSGGGSSAVGQFNSLDGAGKT [V16N]	2.63
